# In patent publication US20090208538A1 (ROCKEFELLER UNIVERSITY, published 2009):
# B1: cdr2 313-221 TILSSLAGS (peptide)
# peptide: TILSSLAGS
# notes: Position printed as 313-221
# B2: cdr2 82-90 KVYEQLDVT (peptide)
# peptide: KVYEQLDVT
# B3: cdr2 201-209 TVTMLQAQL (peptide)
# peptide: TVTMLQAQL
# B4: cdr2 400-408 ASGWELASV (peptide)
# peptide: ASGWELASV
# B5: cdr2 176-184 VFAEKITSL (peptide)
# peptide: VFAEKITSL
# B6: cdr2 120-128 ECLQTNIDH (peptide)
# peptide: ECLQTNIDH
# B7: cdr2 29-37 QLAAELGKT (peptide)
# peptide: QLAAELGKT
# B8: cdr2 274-282 LVPDSLYVP (peptide)
# peptide: LVPDSLYVP
# B9: cdr2 125-133 NIDHLQSQV (peptide)
# peptide: NIDHLQSQV
# B10: cdr2 121-129 CLQTNIDHL (peptide)
# peptide: CLQTNIDHL
# B11: cdr2 204-212 MLQAQLSLE (peptide)
# peptide: MLQAQLSLE
# B12: cdr2 65-73 YLTKQVELL (peptide)
# peptide: YLTKQVELL
# B13: cdr2 203-211 TMLQAQLSL (peptide)
# peptide: TMLQAQLSL
# B14: cdr2 164-172 LYDLRQHFV (peptide)
# peptide: LYDLRQHFV
# B15: cdr2 111-119 KILSLTETI (peptide)
# peptide: KILSLTETI
# B16: cdr2 401-409 SGWELASVN (peptide)
# peptide: SGWELASVN
# B17: cdr2 66-74 LTKQVELLR (peptide)
# peptide: LTKQVELLR
# B18: cdr2 276-284 PDSLYVPFK (peptide)
# peptide: PDSLYVPFK
# B19: cdr2 129-137 LQSQVEELK (peptide)
# peptide: LQSQVEELK
# B20: cdr2 103-111 ADSKASQQK (peptide)
# peptide: ADSKASQQK
# B21: cdr2 238-246 GATGAYRAR (peptide)
# peptide: GATGAYRAR
# B22: cdr2 415-423 SPTTPPEYK (peptide)
# peptide: SPTTPPEYK
# B23: cdr2 419-427 PPEYKALFK (peptide)
# peptide: PPEYKALFK
# B24: cdr2 357-365 KVKYEELLK (peptide)
# peptide: KVKYEELLK
# B25: cdr2 429-437 IFSCIKKTK (peptide)
# peptide: IFSCIKKTK
# B26: cdr2 60-68 LQEIEYLTK (peptide)
# peptide: LQEIEYLTK
# B27: cdr2 316-324 SSLAGSDIV (peptide)
# peptide: SSLAGSDIV
# B28: cdr2 64-72 EYLTKQVEL (peptide)
# peptide: EYLTKQVEL
# B29: cdr2 58-66 EQLQEIEYL (peptide)
# peptide: EQLQEIEYL
# B30: cdr2 425-433 LFKEIFSCI (peptide)
# peptide: LFKEIFSCI
# B31: cdr2 271-279 VEKLVPDSL (peptide)
# peptide: VEKLVPDSL
# B32: cdr2 79-87 QHAKVYEQL (peptide)
# peptide: QHAKVYEQL
# B33: cdr2 282-290 PFKEPSQSL (peptide)
# peptide: PFKEPSQSL
# B34: cdr2 421-429 EYKALFKEI (peptide)
# peptide: EYKALFKEI
# B35: cdr2 352-360 QYSALKVKY (peptide)
# peptide: QYSALKVKY
# B36: cdr2 52-60 MYTTNQEQL (peptide)
# peptide: MYTTNQEQL
# B37: cdr2 338-346 VKQRGISLL (peptide)
# peptide: VKQRGISLL
# B38: cdr2 266-274 PFVNGVEKL (peptide)
# peptide: PFVNGVEKL
# B39: cdr2 422-430 YKALFKEIF (peptide)
# peptide: YKALFKEIF
# B40: cdr2 169-177 QHFVYDHVF (peptide)
# peptide: QHFVYDHVF
# B41: cdr2 173-181 YDHVFAEKI (peptide)
# peptide: YDHVFAEKI
# B42: cdr2 68-76 KQVELLRQM (peptide)
# peptide: KQVELLRQM
# B43: cdr2 381-389 TSRAAAKDL (peptide)
# peptide: TSRAAAKDL
# B44: cdr2 30-38 LAAELGKTL (peptide)
# peptide: LAAELGKTL
# B45: cdr2 153-161 KPAPSFACL (peptide)
# peptide: KPAPSFACL
# B46: cdr2 298-306 VPESHRKPL (peptide)
# peptide: VPESHRKPL
# B47: cdr2 253-261 EVAEMRQML (peptide)
# peptide: EVAEMRQML
# Target: T1, HLA-A*0201 (human)
# T1 construct: also called HLA-A2.1; HLA A2.1
# Assay: iTopia binding;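 further: each peptide tested for binding to HLA-A2 molecules immobilized on plates, using a commercial screening kit run per its supplied protocol and reagents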
row,binding vs positive control,Binder
1,> 30%,B1
2,> 30%,B2
3,> 30%,B3
4,> 30%,B4
5,> 30%,B5
6,> 30%,B6
7,> 30%,B7
8,> 30%,B8
9,> 30%,B9
10,> 30%,B10
11,> 30%,B11
12,> 30%,B12
13,> 30%,B13
14,> 30%,B14
15,> 30%,B15

# Target: T1, HLA-A*0201
# Assay: iTopia affinity
row,ED50,Binder
1,2 µM,B1
2,8 µM,B2
3,3 µM,B3
4,1 µM,B4
5,5 µM,B5
6,30 µM,B6
7,20 µM,B7
8,10 µM,B8
9,6 µM,B9
10,20 µM,B10
11,5 µM,B11
12,2 µM,B12
13,0.8 µM,B13
14,0.5 µM,B14
15,7 µM,B15

# Target: T1, HLA-A*0201
# Assay: iTopia off-rate
row,t1/2,Binder
1,1.1,B1
2,1.3,B2
3,0.6,B3
4,0.5,B4
5,0.4,B5
6,5.4,B6
7,1.4,B7
8,2.4,B8
9,1.3,B9
10,2.4,B10
11,5.1,B11
12,8.1,B12
13,9.8,B13
14,0.4,B14
15,10.5,B15

# Target: HLA-A*1101 (human)
# Assay: iTopia affinity
row,ED50,Binder
1,31 µM,B16
2,7.9 µM,B17
3,25 µM,B18
4,24 µM,B19
5,56 µM,B20
6,19 µM,B21
7,20 µM,B22
8,26 µM,B23
9,1.2 µM,B24
10,12 µM,B25
11,62 µM,B26

# Target: HLA-A*1101 (human)
# Assay: iTopia off-rate
row,t1/2,Binder
1,0.8,B16
2,1.56,B17
3,0.41,B18
4,1.1,B19
5,0.51,B20
6,0.3,B21
7,1.78,B22
8,0.31,B23
9,2.26,B24
10,0.92,B25
11,0.68,B26

# Target: HLA-A*2402 (human)
# Assay: iTopia affinity
row,ED50,Binder
1,43 µM,B27
2,0.65 µM,B28
3,3.4 µM,B29
4,0.075 µM,B30
5,8.8 µM,B31
6,10 µM,B32
7,0.49 µM,B33
8,43 µM,B3
9,0.26 µM,B5
10,18 µM,B6
11,0.44 µM,B34
12,3.1 µM,B35
13,0.54 µM,B36
14,1.9 µM,B12
15,0.7 µM,B13
16,10 µM,B37
17,1.4 µM,B38
18,8.6 µM,B25
19,1.5 µM,B39
20,3.1 µM,B40
21,1.6 µM,B14
22,1.5 µM,B15
23,18 µM,B41

# Target: HLA-A*2402 (human)
# Assay: iTopia off-rate
row,t1/2,Binder
1,1.32,B27
2,1.72,B28
3,1.47,B29
4,1.11,B30
5,1.02,B31
6,0.25,B32
7,1.25,B33
8,0.59,B3
9,0.78,B5
10,0.72,B6
11,1.63,B34
12,0.35,B35
13,1.46,B36
14,0.22,B12
15,0.25,B13
16,1.15,B37
17,0.49,B38
18,1.16,B25
19,1.6,B39
20,0.21,B40
21,0.27,B14
22,0.82,B15
23,0.75,B41

# Target: HLA-B*0702 (human)
# Assay: iTopia affinity
row,ED50,Binder
1,180 µM,B42
2,18 µM,B43
3,33 µM,B44
4,5.5 µM,B45
5,9.9 µM,B46
6,18 µM,B47

# Target: HLA-B*0702 (human)
# Assay: iTopia off-rate
row,t1/2,Binder
1,1.15,B42
2,1.19,B43
3,0.5,B44
4,1.29,B45
5,1.33,B46
6,0.74,B47

# Target: T1, HLA-A*0201
# Assay: iTopia net score
row,iScore,Binder
1,0.238,B1
2,0.139,B2
3,0.132,B3
4,0.187,B4
5,0.106,B5
6,0.178,B6
7,0.15,B7
8,0.154,B8
9,0.166,B9
10,0.176,B10
11,0.235,B11
12,0.645,B12
13,0.811,B13
14,0.199,B14
15,0.512,B15

# Target: HLA-A*1101 (human)
# Assay: iTopia net score
row,iScore,Binder
1,0.059,B16
2,0.238,B17
3,0.063,B18
4,0.103,B19
5,0.054,B20
6,0.056,B21
7,0.136,B22
8,0.058,B23
9,0.22,B24
10,0.088,B25
11,0.048,B26

# Target: HLA-A*2402 (human)
# Assay: iTopia net score
row,iScore,Binder
1,0.081,B27
2,0.444,B28
3,0.142,B29
4,0.529,B30
5,0.092,B31
6,0.058,B32
7,0.496,B33
8,0.062,B3
9,0.446,B5
10,0.095,B6
11,0.505,B34
12,0.098,B35
13,0.441,B36
14,0.107,B12
15,0.117,B13
16,0.172,B37
17,0.218,B38
18,0.108,B25
19,0.357,B39
20,0.097,B40
21,0.157,B14
22,0.261,B15
23,0.089,B41

# Target: HLA-B*0702 (human)
# Assay: iTopia net score
row,iScore,Binder
1,0.055,B42
2,0.067,B43
3,0.052,B44
4,0.205,B45
5,0.22,B46
6,0.077,B47
